{"source": "patent US10487331", "key": {"[1]": {"system": "surface proteins of Aggregatibacter actinomycetemcomitans (whole cells) (Aggregatibacter actinomycetemcomitans)", "conditions": "whole-cell binding, real-time PCR of eluted aptamer, SELEX buffer, room temperature"}, "[2]": {"system": "surface proteins of Porphyromonas gingivalis (whole cells) (Porphyromonas gingivalis)", "conditions": "whole-cell binding, real-time PCR of eluted aptamer, SELEX buffer, room temperature"}}}
{"sequence": "TCCCTACGGCGCTAACCGTATGTGTACCCGGTGGGGCGCGATTGACGCCACCGTGCTACAAC [A. actinomycetemcomitans aptamer]", "values": [{"measurement": "Kd", "setting": "[1]", "value": 3.5, "unit": "nM"}]}
{"sequence": "TCCCTACGGCGCTAACTGTAACTGGGAGCGGACCTAGGTTACATGAGCCACCGTGCTACAAC [P. gingivalis aptamer]", "values": [{"measurement": "Kd", "setting": "[2]", "value": 4.59, "unit": "nM"}]}
